In US12679878B2, “CRF2 receptor agonists and their use in therapy” (SANOFI, priority 2020, dated 2026):
Starred links: 1 amine or outer side, 2 acyl side, 3 side chain; linkers in the order of their positions; H or OH if unused. Non-standard residues stand in square brackets, D forms with d. Groups on a side chain read outwards from the residue. *: point of attachment. C18 diacid = O=C(O)CCCCCCCCCCCCCCCCC(=O)*; γGlu = O=C(O)[C@H](CCC(=O)[*:2])N[*:1]; AEEA = NCCOCCOCC(=O)O; Aib = CC(C)(N)C(=O)O

B1: SEQ ID NO: 168 (peptide)
peptide: Ac-IVLSLD[dV]PIELK([AEEA-AEEA-γGlu-C18 diacid])QILLEQERQK[Aib]QREQAEKNEQILEQV-NH2
SMILES: CC[C@H](C)[C@H](NC(C)=O)C(=O)N[C@H](C(=O)N[C@@H](CC(C)C)C(=O)N[C@@H](CO)C(=O)N[C@@H](CC(C)C)C(=O)N[C@@H](CC(=O)O)C(=O)N[C@@H](C(=O)N1CCC[C@H]1C(=O)N[C@H](C(=O)N[C@@H](CCC(=O)O)C(=O)N[C@@H](CC(C)C)C(=O)N[C@@H](CCCCNC(=O)COCCOCCNC(=O)COCCOCCNC(=O)CC[C@H](NC(=O)CCCCCCCCCCCCCCCCC(=O)O)C(=O)O)C(=O)N[C@@H](CCC(N)=O)C(=O)N[C@H](C(=O)N[C@@H](CC(C)C)C(=O)N[C@@H](CC(C)C)C(=O)N[C@@H](CCC(=O)O)C(=O)N[C@@H](CCC(N)=O)C(=O)N[C@@H](CCC(=O)O)C(=O)N[C@@H](CCCNC(=N)N)C(=O)N[C@@H](CCC(N)=O)C(=O)N[C@@H](CCCCN)C(=O)NC(C)(C)C(=O)N[C@@H](CCC(N)=O)C(=O)N[C@@H](CCCNC(=N)N)C(=O)N[C@@H](CCC(=O)O)C(=O)N[C@@H](CCC(N)=O)C(=O)N[C@@H](C)C(=O)N[C@@H](CCC(=O)O)C(=O)N[C@@H](CCCCN)C(=O)N[C@@H](CC(N)=O)C(=O)N[C@@H](CCC(=O)O)C(=O)N[C@@H](CCC(N)=O)C(=O)N[C@H](C(=O)N[C@@H](CC(C)C)C(=O)N[C@@H](CCC(=O)O)C(=O)N[C@@H](CCC(N)=O)C(=O)N[C@H](C(N)=O)C(C)C)[C@@H](C)CC)[C@@H](C)CC)[C@@H](C)CC)C(C)C)C(C)C
B2: SEQ ID NO: 169 (peptide)
peptide: Ac-IVLSLD[dV]PIKLK([AEEA-AEEA-γGlu-C18 diacid])QILLEQERQE[Aib]QREQAEKNEQILEQV-NH2
SMILES: CC[C@H](C)[C@H](NC(C)=O)C(=O)N[C@H](C(=O)N[C@@H](CC(C)C)C(=O)N[C@@H](CO)C(=O)N[C@@H](CC(C)C)C(=O)N[C@@H](CC(=O)O)C(=O)N[C@@H](C(=O)N1CCC[C@H]1C(=O)N[C@H](C(=O)N[C@@H](CCCCN)C(=O)N[C@@H](CC(C)C)C(=O)N[C@@H](CCCCNC(=O)COCCOCCNC(=O)COCCOCCNC(=O)CC[C@H](NC(=O)CCCCCCCCCCCCCCCCC(=O)O)C(=O)O)C(=O)N[C@@H](CCC(N)=O)C(=O)N[C@H](C(=O)N[C@@H](CC(C)C)C(=O)N[C@@H](CC(C)C)C(=O)N[C@@H](CCC(=O)O)C(=O)N[C@@H](CCC(N)=O)C(=O)N[C@@H](CCC(=O)O)C(=O)N[C@@H](CCCNC(=N)N)C(=O)N[C@@H](CCC(N)=O)C(=O)N[C@@H](CCC(=O)O)C(=O)NC(C)(C)C(=O)N[C@@H](CCC(N)=O)C(=O)N[C@@H](CCCNC(=N)N)C(=O)N[C@@H](CCC(=O)O)C(=O)N[C@@H](CCC(N)=O)C(=O)N[C@@H](C)C(=O)N[C@@H](CCC(=O)O)C(=O)N[C@@H](CCCCN)C(=O)N[C@@H](CC(N)=O)C(=O)N[C@@H](CCC(=O)O)C(=O)N[C@@H](CCC(N)=O)C(=O)N[C@H](C(=O)N[C@@H](CC(C)C)C(=O)N[C@@H](CCC(=O)O)C(=O)N[C@@H](CCC(N)=O)C(=O)N[C@H](C(N)=O)C(C)C)[C@@H](C)CC)[C@@H](C)CC)[C@@H](C)CC)C(C)C)C(C)C
B3: SEQ ID NO: 166 (peptide)
peptide: Ac-IVLSLD[dV]PIKLK([AEEA-AEEA-γGlu-C18 diacid])QILLEQERQK[Aib]QREQAEKNEQILEQV-NH2
SMILES: CC[C@H](C)[C@H](NC(C)=O)C(=O)N[C@H](C(=O)N[C@@H](CC(C)C)C(=O)N[C@@H](CO)C(=O)N[C@@H](CC(C)C)C(=O)N[C@@H](CC(=O)O)C(=O)N[C@@H](C(=O)N1CCC[C@H]1C(=O)N[C@H](C(=O)N[C@@H](CCCCN)C(=O)N[C@@H](CC(C)C)C(=O)N[C@@H](CCCCNC(=O)COCCOCCNC(=O)COCCOCCNC(=O)CC[C@H](NC(=O)CCCCCCCCCCCCCCCCC(=O)O)C(=O)O)C(=O)N[C@@H](CCC(N)=O)C(=O)N[C@H](C(=O)N[C@@H](CC(C)C)C(=O)N[C@@H](CC(C)C)C(=O)N[C@@H](CCC(=O)O)C(=O)N[C@@H](CCC(N)=O)C(=O)N[C@@H](CCC(=O)O)C(=O)N[C@@H](CCCNC(=N)N)C(=O)N[C@@H](CCC(N)=O)C(=O)N[C@@H](CCCCN)C(=O)NC(C)(C)C(=O)N[C@@H](CCC(N)=O)C(=O)N[C@@H](CCCNC(=N)N)C(=O)N[C@@H](CCC(=O)O)C(=O)N[C@@H](CCC(N)=O)C(=O)N[C@@H](C)C(=O)N[C@@H](CCC(=O)O)C(=O)N[C@@H](CCCCN)C(=O)N[C@@H](CC(N)=O)C(=O)N[C@@H](CCC(=O)O)C(=O)N[C@@H](CCC(N)=O)C(=O)N[C@H](C(=O)N[C@@H](CC(C)C)C(=O)N[C@@H](CCC(=O)O)C(=O)N[C@@H](CCC(N)=O)C(=O)N[C@H](C(N)=O)C(C)C)[C@@H](C)CC)[C@@H](C)CC)[C@@H](C)CC)C(C)C)C(C)C
B4: SEQ ID NO: 167 (peptide)
peptide: Ac-IVLSLD[dV]PIGLK([AEEA-AEEA-γGlu-C18 diacid])QILLEQERQK[Aib]QREQAEKNEQILEQV-NH2
SMILES: CC[C@H](C)[C@H](NC(C)=O)C(=O)N[C@H](C(=O)N[C@@H](CC(C)C)C(=O)N[C@@H](CO)C(=O)N[C@@H](CC(C)C)C(=O)N[C@@H](CC(=O)O)C(=O)N[C@@H](C(=O)N1CCC[C@H]1C(=O)N[C@H](C(=O)NCC(=O)N[C@@H](CC(C)C)C(=O)N[C@@H](CCCCNC(=O)COCCOCCNC(=O)COCCOCCNC(=O)CC[C@H](NC(=O)CCCCCCCCCCCCCCCCC(=O)O)C(=O)O)C(=O)N[C@@H](CCC(N)=O)C(=O)N[C@H](C(=O)N[C@@H](CC(C)C)C(=O)N[C@@H](CC(C)C)C(=O)N[C@@H](CCC(=O)O)C(=O)N[C@@H](CCC(N)=O)C(=O)N[C@@H](CCC(=O)O)C(=O)N[C@@H](CCCNC(=N)N)C(=O)N[C@@H](CCC(N)=O)C(=O)N[C@@H](CCCCN)C(=O)NC(C)(C)C(=O)N[C@@H](CCC(N)=O)C(=O)N[C@@H](CCCNC(=N)N)C(=O)N[C@@H](CCC(=O)O)C(=O)N[C@@H](CCC(N)=O)C(=O)N[C@@H](C)C(=O)N[C@@H](CCC(=O)O)C(=O)N[C@@H](CCCCN)C(=O)N[C@@H](CC(N)=O)C(=O)N[C@@H](CCC(=O)O)C(=O)N[C@@H](CCC(N)=O)C(=O)N[C@H](C(=O)N[C@@H](CC(C)C)C(=O)N[C@@H](CCC(=O)O)C(=O)N[C@@H](CCC(N)=O)C(=O)N[C@H](C(N)=O)C(C)C)[C@@H](C)CC)[C@@H](C)CC)[C@@H](C)CC)C(C)C)C(C)C

These binders were tested against human corticotropin-releasing factor 2α (CRF2 α receptor) (human), Q13324 (assay: cell-based or functional assay).
human corticotropin-releasing factor 2α (CRF2 α receptor) (human), Q13324, sequence (Q13324 20-411): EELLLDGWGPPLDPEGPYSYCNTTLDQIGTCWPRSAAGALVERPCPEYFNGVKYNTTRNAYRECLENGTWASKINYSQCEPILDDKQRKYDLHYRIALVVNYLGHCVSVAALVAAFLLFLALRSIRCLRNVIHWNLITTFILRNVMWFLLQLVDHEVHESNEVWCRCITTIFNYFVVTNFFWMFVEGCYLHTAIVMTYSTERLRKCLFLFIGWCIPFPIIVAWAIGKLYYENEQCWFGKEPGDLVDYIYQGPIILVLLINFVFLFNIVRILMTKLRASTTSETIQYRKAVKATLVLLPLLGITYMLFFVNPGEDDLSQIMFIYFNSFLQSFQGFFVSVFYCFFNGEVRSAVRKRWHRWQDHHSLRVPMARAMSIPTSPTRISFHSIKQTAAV

| Binder | EC50 [nM], 0% HSA | EC50 [nM], 0.1% HSA |
| --- | --- | --- |
| B1 | 13.9 nM | – |
| B2 | 4.01 nM | 98.1 nM |
| B3 | 0.9 nM | 14 nM |
| B4 | 3.95 nM | 74.4 nM |
